Experimental data reported in US20100166808A1, “Method of Facilitating Intracellular Uptake or Transcellular Transport of Cargo Using Nanocarriers Containing Optimal Surface Densities of Integrin-Specific Ligands” (priority 2008, published 2010).

Columns and labels:
Assay in all cases: Selectivity for human integrin receptors: phage binding to plate-coated purified integrin
Details in all cases: FIG. 1; purified integrin coated at 1 μg/mL; phage-displayed ligand, detection at 450 nm
[1] = biological target: T1, human α5β1 integrin receptor (Homo sapiens, UniProt P05556+P08648)
T1 construct: purchased Chemicon, Temecula, Calif
Description: (§1) Nunc MaxiSorp™ 96-well plates are coated with 200 μL of purified human α3β1, α5β1, and αvβ5 integrins (Chemicon, Temecula, Calif.) at 1 μg/mL in Tween 20™/PBS buffer, pH 7.5 (4° C.). After blocking for two hours with 5% (w/v) BSA (bovine serum albumin) in PBS, pH 7.5, phage samples are incubated with integrins in PBS, pH 7.5, supplemented with 2.5% (w/v) non-fat dry milk. After one hour of incubation, unbound phages are removed and the wells are washed five times with Ca^2+- and Mg^2+-containing PBS, pH 7.5.
(§2) Bound phages are quantified spectrophotometrically at λ=450 nm using monoclonal mouse T7 tail fiber antibody (1:5,000) followed by goat anti-mouse IgG horseradish peroxidase:conjugate (1:5,000) and TMB (3,3′,5,5′-tetramethyl-benzidine) as substrate.

α3β1 integrin receptor = biological target: T2, α3β1 integrin receptor (Homo sapiens, UniProt P05556+P26006)
T2 construct: purchased Chemicon, Temecula, Calif
Description: as §1, §2

αvβ3 integrin receptor = test system: αvβ3 integrin receptor

T1 sequence (P08648 42-894 limits assumed): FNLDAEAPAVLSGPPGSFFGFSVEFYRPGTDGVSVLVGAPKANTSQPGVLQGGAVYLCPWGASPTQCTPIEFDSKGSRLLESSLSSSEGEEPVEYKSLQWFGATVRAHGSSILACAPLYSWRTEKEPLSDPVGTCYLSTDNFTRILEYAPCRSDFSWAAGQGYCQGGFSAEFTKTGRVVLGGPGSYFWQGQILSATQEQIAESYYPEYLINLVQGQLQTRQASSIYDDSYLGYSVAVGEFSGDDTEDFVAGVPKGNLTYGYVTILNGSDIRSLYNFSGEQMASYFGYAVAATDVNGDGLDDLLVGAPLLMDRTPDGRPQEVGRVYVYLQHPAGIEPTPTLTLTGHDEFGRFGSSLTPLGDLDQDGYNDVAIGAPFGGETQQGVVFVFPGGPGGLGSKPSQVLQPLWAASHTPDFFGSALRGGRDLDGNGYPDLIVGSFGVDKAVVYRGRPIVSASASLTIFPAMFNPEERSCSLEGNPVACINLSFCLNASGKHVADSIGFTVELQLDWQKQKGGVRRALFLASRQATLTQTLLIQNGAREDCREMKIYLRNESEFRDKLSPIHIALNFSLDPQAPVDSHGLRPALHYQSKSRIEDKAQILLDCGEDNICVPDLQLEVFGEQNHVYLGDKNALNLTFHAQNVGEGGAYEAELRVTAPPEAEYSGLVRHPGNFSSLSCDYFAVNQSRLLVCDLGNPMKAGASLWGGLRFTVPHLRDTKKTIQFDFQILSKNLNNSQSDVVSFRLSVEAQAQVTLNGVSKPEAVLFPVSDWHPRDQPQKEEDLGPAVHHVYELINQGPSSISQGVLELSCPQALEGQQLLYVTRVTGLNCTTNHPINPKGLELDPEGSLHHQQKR
T1 sequence (P08648 895-1049 partner limits assumed): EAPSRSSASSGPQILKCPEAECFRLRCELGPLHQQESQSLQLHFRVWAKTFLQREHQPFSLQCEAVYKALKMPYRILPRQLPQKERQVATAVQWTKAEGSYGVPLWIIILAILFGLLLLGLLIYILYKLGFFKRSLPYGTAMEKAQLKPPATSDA
T1 sequence (P05556 21-798): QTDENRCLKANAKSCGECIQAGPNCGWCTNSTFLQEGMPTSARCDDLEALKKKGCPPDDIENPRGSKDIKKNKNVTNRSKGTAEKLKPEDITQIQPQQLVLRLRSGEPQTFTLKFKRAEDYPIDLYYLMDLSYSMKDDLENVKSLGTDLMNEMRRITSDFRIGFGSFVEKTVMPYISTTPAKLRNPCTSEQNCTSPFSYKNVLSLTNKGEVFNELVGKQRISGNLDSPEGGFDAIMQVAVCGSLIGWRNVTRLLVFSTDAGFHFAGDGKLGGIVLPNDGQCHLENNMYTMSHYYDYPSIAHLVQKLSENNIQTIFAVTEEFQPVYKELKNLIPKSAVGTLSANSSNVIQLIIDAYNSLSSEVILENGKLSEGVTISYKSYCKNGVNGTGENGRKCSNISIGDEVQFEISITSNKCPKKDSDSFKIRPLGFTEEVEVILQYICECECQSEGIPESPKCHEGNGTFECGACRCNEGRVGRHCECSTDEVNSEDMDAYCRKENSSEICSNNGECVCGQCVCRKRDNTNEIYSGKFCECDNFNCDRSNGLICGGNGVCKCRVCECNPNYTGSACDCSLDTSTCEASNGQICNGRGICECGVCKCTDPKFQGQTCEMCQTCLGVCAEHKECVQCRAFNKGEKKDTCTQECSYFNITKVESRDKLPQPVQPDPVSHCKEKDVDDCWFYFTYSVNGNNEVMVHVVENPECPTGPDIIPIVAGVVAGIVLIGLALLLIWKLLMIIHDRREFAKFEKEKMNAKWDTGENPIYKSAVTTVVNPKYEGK
T2 sequence (P26006 33-872 limits assumed): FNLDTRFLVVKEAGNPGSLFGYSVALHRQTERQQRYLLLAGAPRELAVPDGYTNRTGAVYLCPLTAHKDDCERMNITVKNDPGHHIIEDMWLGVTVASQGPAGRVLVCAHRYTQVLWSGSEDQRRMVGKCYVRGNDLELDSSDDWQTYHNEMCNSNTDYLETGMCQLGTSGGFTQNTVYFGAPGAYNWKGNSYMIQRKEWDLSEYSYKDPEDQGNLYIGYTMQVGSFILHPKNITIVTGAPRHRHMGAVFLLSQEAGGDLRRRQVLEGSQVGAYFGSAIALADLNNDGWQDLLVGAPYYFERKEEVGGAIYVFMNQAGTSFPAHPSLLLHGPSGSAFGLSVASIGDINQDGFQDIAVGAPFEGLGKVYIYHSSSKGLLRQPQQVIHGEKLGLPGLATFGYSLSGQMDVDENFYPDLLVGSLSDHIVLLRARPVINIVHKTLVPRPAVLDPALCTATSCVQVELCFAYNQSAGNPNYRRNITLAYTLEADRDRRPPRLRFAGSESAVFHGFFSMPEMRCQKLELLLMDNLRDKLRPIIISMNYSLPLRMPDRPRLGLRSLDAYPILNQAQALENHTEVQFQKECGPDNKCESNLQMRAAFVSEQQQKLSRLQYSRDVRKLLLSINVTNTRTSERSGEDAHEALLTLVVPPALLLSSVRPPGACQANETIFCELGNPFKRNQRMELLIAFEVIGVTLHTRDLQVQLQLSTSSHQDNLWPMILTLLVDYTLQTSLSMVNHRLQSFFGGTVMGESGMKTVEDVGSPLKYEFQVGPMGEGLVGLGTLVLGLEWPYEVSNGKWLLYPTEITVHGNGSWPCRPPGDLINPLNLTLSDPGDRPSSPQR
T2 sequence (P26006 873-1051 partner limits assumed): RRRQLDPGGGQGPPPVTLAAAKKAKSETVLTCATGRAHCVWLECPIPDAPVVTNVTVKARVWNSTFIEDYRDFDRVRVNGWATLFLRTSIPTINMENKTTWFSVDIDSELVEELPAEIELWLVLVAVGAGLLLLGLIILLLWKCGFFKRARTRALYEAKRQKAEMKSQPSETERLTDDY
T2 sequence (P05556 21-798): as the sequence (P05556 21-798) above

Sequence: RYRGDLGRR [α5β1 integrin-specific ligand peptide]
- binding to surface-immobilized human α5β1 integrin receptor [1]: binds most effectively
- affinity for α3β1 integrin receptor (α3β1 integrin receptor): displays affinity
- affinity for αvβ3 integrin receptor (αvβ3 integrin receptor): displays affinity
